Test results as given in patent US20220119543A1 (INATHERYS, published 2022).

Tests used:
[1] = molecular target: T1, Recombinant human TfR (R&D Systems, Catalog number 2474-TR) (human, UniProt P02786 89-760); test: SPR (Biacore), His-tagged human TfR captured on anti-Penta-His CM5 chip, antibody injected
T1 construct: Bought recombinant protein; also called Histidin-tagged human TfR; TfR-His; not shown: histidine tag
Experimental: Histidin-tagged human TfR (as obtained from R&D Systems, Catalog number 2474-TR) was bound after passage on covalently immobilized Penta-His mAb CM5 sensor chip. Ten different concentrations of antibody (1 to 500 nM) were injected across the anti-His/TfR-His surface for 4 minutes and the dissociation complexes was followed for 5 minutes. Both association and dissociation profiles are analyzed with a nonlinear square algorithm implemented in the BIAevalution software using single-exponential functions of time.

[2] = molecular target: T1, Recombinant human TfR (R&D Systems, …); test: ELISA, recombinant human TfR coated on plate
Experimental: For the determination of the specificity of the antibody an ELISA test may be applied using the following protocol. Recombinant human TfR (as obtained from R&D Systems, Catalog number 2474-TR) are directly coated on a 96 well plate overnight and washed twice before incubation with several dilutions (10) of the antibody (murine and humanized mAb) (dilution may start at the concentration of 50 μg/ml through 0,001 ug/ml) and incubate 1 hour at room temperature. After two washes a secondary antibody Goat-anti Human IgG is incubated Incubate 1 hour at room temperature in the dark, washed twice and incubated with the TMB solution for 10 minutes before reading the absorbance at 450 nm.

T1 sequence (P02786 89-760 limits assumed): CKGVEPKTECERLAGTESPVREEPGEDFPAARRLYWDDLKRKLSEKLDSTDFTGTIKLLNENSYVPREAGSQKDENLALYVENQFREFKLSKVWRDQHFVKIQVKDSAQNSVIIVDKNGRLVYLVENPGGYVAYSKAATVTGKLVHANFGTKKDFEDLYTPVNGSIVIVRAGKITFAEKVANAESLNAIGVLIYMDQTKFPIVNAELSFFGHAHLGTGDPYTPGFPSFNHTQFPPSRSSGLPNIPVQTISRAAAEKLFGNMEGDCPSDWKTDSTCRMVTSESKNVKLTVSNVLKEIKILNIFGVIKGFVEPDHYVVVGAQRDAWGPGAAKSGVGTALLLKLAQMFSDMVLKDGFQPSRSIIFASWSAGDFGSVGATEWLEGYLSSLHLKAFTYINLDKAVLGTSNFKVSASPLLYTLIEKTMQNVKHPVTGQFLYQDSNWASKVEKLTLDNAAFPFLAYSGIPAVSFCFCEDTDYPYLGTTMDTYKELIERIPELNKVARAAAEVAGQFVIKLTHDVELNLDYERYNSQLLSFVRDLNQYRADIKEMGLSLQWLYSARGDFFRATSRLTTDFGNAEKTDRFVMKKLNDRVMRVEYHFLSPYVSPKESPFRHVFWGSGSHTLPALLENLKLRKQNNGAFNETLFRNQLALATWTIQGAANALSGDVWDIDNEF

B1: mAb1 (antibody, human IgG4 S228P, kappa, V domains shown)
VH: QVQLVQSGPELKKPGASVKVSCKASGYTFTNQGMNWVKQAPGKGLKWMGWINTYTGEPINADDFKGRFVISLDTSASTAYLQISSLKAEDTAVYFCVREGWDSMDYWGQGTSVTVSS
VL: QIVLTQSPATLSVSPGERATLSCSASSSVNYMHWFQQKPGQSPRLLIYSTSNRATGIPARFSGSGSGTSYTLTISSLEPEDFAVYYCQQRSSYPLTFGQGTKLEIKR
notes: Humanized A24, human IgG4 isotype; also called VH4/VL4 with IgG4 Fc region
- Kd [1]: 315 pM
- EC50 [2]: 0.024 µg/mL
